The source of these data is patent US20150018528A1.

Assay [1] has as its target human TREM-1 on BWZ.36/hTREM-1:DAP12:NFAT-LacZ reporter cells (human) (UniProt Q9NP99). Description: cell-based or functional assay.
For assay [2], the target named is Type II 1.0 PGLYRP1 on HEK293 6E cells (human). The assay is described as follows: cell-based or functional assay.
Assay [3] concerns the target TREM-1-interacting protein on PGN-stimulated neutrophils. Description: flow cytometry on PGN-stimulated neutrophils, 2 µg/ml probe, goat anti hFc/PE. In general terms: Flow cytometry measures light scatter and fluorescence of single cells or particles in a stream.
Assay [4] addresses Type II PGLYRP3 on HEK293-6E cells (human). Description: flow cytometry on transfected HEK293-6E cells.
Assay [5] concerns the target Type II PGLYRP1 on HEK293-6E cells (Example 15) (human). Description: flow cytometry on transfected HEK293-6E cells.
For assay [6], the target named is Type II PGLYRP3 + 4 on HEK293-6E cells (human). The assay is described as follows: flow cytometry on transfected HEK293-6E cells.
Sequence of Type II PGLYRP3 + 4 on HEK293-6E cells (human) (Q96LB9 other isoform, or with tags, fused parts or gaps, form in doubt, chain 1 of 2): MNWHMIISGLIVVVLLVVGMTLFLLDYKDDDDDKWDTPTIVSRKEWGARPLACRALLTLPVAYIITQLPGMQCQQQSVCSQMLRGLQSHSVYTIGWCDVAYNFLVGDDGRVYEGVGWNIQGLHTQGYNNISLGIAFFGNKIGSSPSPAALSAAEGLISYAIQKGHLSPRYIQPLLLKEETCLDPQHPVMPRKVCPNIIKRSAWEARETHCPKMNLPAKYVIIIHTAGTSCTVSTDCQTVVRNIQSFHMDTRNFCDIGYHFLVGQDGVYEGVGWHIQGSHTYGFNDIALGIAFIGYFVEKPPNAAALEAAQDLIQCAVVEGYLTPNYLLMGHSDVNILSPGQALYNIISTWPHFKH
Sequence of Type II PGLYRP3 + 4 on HEK293-6E cells (human) (Q96LB8 other isoform, or with tags, fused parts or gaps, form in doubt, chain 2 of 2, further chain): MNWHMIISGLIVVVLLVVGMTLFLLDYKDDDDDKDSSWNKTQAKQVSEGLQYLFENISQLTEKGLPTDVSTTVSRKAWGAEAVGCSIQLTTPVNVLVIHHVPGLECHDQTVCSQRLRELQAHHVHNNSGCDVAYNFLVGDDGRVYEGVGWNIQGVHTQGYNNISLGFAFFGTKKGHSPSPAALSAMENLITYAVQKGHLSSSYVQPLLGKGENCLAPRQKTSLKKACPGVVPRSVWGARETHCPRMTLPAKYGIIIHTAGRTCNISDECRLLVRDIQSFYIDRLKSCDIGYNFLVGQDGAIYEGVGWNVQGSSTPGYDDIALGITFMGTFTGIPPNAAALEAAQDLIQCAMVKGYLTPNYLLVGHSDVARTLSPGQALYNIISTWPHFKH
Assay [7] concerns the target TREM-1-interacting protein on PGN-stimulated neutrophils. The assay is described as follows: flow cytometry competition: 2 µg/ml TREM-1 tetramer as probe with 100 µg/ml DCIR COMP; did not compete.
Assay [8] shares this target. The assay is described as follows: flow cytometry competition: 2 µg/ml TREM-1 tetramer as probe with 100 µg/ml TREM COMP.
Assay [9] addresses Type II PGLYRP1 on HEK293-6E cells (Example 15) (human). The assay is described as follows: flow cytometry on transfected HEK293-6E cells, probe 5 ug/ml; grade of MFI ratio over negative control (++++ is >30).

Sequence of Type II PGLYRP1 on HEK293-6E cells (Example 15) (human) (chain, as listed by the source limits assumed, form in doubt): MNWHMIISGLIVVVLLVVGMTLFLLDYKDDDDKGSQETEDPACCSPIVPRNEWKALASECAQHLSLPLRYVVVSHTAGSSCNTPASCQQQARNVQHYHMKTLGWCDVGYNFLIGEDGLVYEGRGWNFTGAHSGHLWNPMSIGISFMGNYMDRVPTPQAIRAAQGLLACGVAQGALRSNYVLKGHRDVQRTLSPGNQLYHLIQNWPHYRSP
Sequence of Type II PGLYRP3 on HEK293-6E cells (human) (Q96LB9 other isoform, or with tags, fused parts or gaps, form in doubt): as the sequence (Q96LB9 other isoform, or with tags, fused parts or gaps, form in doubt, chain 1 of 2) above
Sequence of Type II 1.0 PGLYRP1 on HEK293 6E cells (human) (chain, as listed by the source limits assumed): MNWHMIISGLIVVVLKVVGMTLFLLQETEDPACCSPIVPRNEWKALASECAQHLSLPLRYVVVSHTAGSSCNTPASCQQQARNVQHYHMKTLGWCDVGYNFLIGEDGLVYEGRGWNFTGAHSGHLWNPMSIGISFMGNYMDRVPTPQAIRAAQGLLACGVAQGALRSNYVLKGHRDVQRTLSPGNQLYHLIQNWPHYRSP
Sequence of human TREM-1 on BWZ.36/hTREM-1:DAP12:NFAT-LacZ reporter cells (human) (Q9NP99 21-234): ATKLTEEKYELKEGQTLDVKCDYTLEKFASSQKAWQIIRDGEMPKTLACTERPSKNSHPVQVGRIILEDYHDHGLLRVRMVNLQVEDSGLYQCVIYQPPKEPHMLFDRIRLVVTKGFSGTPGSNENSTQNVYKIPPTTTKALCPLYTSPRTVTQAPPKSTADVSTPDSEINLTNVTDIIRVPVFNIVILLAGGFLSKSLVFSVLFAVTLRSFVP

“Type II 1.0 PGLYRP1 on HEK293 6E cells (ligand)”: the Fold activity of BWZ/hTREM1 reporter cells co-incubated with transfected HEK293 6E cells, without PGN, against empty vector in assay [1] was 24 fold. Consider “IsoAb (isotype control antibody of Example 18)”, for which, in [2], the Activity of BWZ/hTREM1 reporter cells with Type II 1.0 PGLYRP1 transfectants (without antibody: 100%) is 98%.

With “human TREM-1-G4Sx3-TREM-1/Fc6mut (TREM-1 tetramer) (Fc fusion)”, the % positive cells in assay [3] came out at 39%.

As to huTREML1.Fc dimer (C0246) (Fc fusion), the ratio of MFI of probe staining over negative control staining in assay [4], in [5] and in assay [6] was less than 1 in each case. Regarding huTREM2.Fc dimer (C0248) (Fc fusion), the ratio of MFI of probe staining over negative control staining in assay [4], in [5] and in assay [6] was less than 1 throughout. For DCIR COMP (6HIS-SBP38x2-COMP-hDCIR), in assay [7], the % positive cells (TREM-1 tetramer staining with competitor) was 41%.

As for TREM COMP (hTREM-1-COMP-SBP38x2-6HIS), the % positive cells (TREM-1 tetramer staining with competitor) in [8] is 10%. huTREM-1.Fc dimer (C0099) (Fc fusion): the ratio of MFI of probe staining over negative control staining in assay [9] was more than 30; in assay [4], less than 1; in assay [6] it was less than 1. As to huTREML2.Fc dimer (C0247) (Fc fusion), the ratio of MFI of probe staining over negative control staining in assay [4], in assay [5] and in [6] was less than 1 each time.
